Experimental data taken from patent US20210187091A1 (DUKE UNIVERSITY, published 2021).
Substitutions are numbered along the chain they refer to.

T1: Man9-V3 glycopeptide (HIV-1 clade B JRFL, Man9GlcNAc2 at N301 and at N332; disulfide bridge between C296 and C331 (cyclized); biotin tag)
T1 construct: 30-amino acid synthetic V3 glycopeptide based on the clade B JRFL mini-V3 construct (residues 305-320 deleted); captured by its biotin on streptavidin sensors, or tetramerized on streptavidin for sorting; also called Man-V3 glycopeptide; Man9-V3-biotin
T1 peptide: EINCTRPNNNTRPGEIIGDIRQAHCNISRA

B1: DH270.IA3 (antibody, V domains shown)
VH: EVQLVESGPELKEPGASVKVSCKASGYTFTDYYIHWVRQAPGQGLEWMAWINPTTGRSSFARGFQGRVIMTRETSVSTAYMELRRLRSDDTAVYYCAKAGYIALYVDYSGYPNFNSWGQGTLVTVSS
VL: QSALTQPASVSGSPGQSITISCTGTSYDVGSYNLVSWYQQHPGKAPKLIIYEVSQWPSGVSKRFSGSKSGNTASLTISGLQAEDEAHYYCCSYAGSSTVIFGGGTSLTVL
B2: DH270.6 (antibody, V domains shown)
VH: QVQLVQSGAQMKNPGASVKVSCAPSGYTFTDFYIHWLRQAPGQGLQWMGWMNPQTGRTNTARNFQGRVIMTRDTSIGTAYMELRSLTSDDTAIYYCTTGGWISLYYDSSYYPNFDHWGQGTLLTVSS
VL: TSLLTQPASVSGSPGQSITISCTGTKYDVGSHDLVSWYQQYPGKVPKYMIYEVNKRPSGVSNRFSGSKSGNTASLTISGLRAEDEADYYCCSFGGSATVVCGGGTKVTVL
notes: Recombinant IgG
B3: DH270.IA4 (antibody, V domains shown)
VH: QVQLVQSGAEVKKPGASVKVSCKASGYTFTDYYIHWVRQAPGQGLEWMGWINPNTGRTNYAQKFQGRVTMTRDTSISTAYMELSRLRSDDTAVYYCARGGWIGLYYDSSGYPNFDYWGQGTLVTVSS
VL: B1 VL with I49M, Q55K, W56R, K62N, H87D, S106K
notes: Inferred intermediate, recombinant IgG; copies: 2 + 2
B4: DH270.IA2 (antibody, V domains shown)
VH: B3 VH with V11M, R87T, R98T
VL: B1 VL with L48Y, I49M, S54N, Q55K, W56R, K62N, H87D, S106K
notes: Inferred intermediate, recombinant IgG
B5: DH270.UCA (antibody, V domains shown)
VH: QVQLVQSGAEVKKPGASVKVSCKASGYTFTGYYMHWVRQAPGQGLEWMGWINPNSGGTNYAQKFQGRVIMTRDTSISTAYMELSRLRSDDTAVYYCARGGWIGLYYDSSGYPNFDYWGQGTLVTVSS
VL: B1 VL with Y27S, I49M, Q55K, W56R, K62N, H87D, S106K
notes: also called UCA4; DH270UCA4

How the values were obtained:
Man9-V3 glycopeptide [1] = biological target: T1, Man9-V3 glycopeptide; assay: BLI, biotinylated Man9-V3 on streptavidin sensors, antibody in solution
Man9-V3 glycopeptide [2] = biological target: T1, Man9-V3 glycopeptide; assay: BLI, biotinylated Man9-V3 on streptavidin sensors, antibody in solution, bivalent avidity model
Protocol: Kinetics analyses were performed by global curve fitting using bivalent avidity model and as described in methods (“Affinity measurements” section).
Antibody binding kinetic rate constants (ka, kd) of the Man9-V3 glycopeptide and its aglycone form (16) were measured by Bio-layer Interferometry (BLI, ForteBio Octet Red96) measurements. The BLI assay was performed using streptavidin coated sensors (ForteBio) to capture either biotin-tagged Man₉-V3 glycopeptide or Aglycone-V3 peptide. The V3 peptide immobilized sensors were dipped into varying concentrations of antibodies following blocking of sensors in BSA (0.1%). Antibody concentrations ranged from 0.5 to 150 μg/mL and non-specific binding interactions were subtracted using the control anti-RSV Palivizumab (Synagis) mAb. Rate constants were calculated by global curve fitting analyses to the Bivalent Avidity model of binding responses with a 10 min association and 15 min dissociation interaction time. The dissociation constant (Kd) values without avidity contribution were derived using the initial components of the association and dissociation rates (ka1 and kd1) respectively.

[3] = biological target: T2, cell surface membrane expressed CH848 TF Env trimer (CHO cells) (HIV-1 clade C (CH848 …)); assay: flow cytometry on CHO cells expressing CH848 TF Env trimer
T2 construct: also called cell surface membrane expressed gp160 trimers; CH848 Env trimer expressed on the cell surface of CHO cells

Row | Binder | binding result [3] | further results
1 | B1 |  | Kd (Man9-V3 glycopeptide [1]): > 10000 nM
2 | B2 |  | Kd (Man9-V3 glycopeptide [2]): 188 nM
3 | B3 | no binding (tested: 5 µg/mL) | 
4 | B4 | no binding (tested: 5 µg/mL) | 
5 | B5 | no binding (tested: 5 µg/mL) | 
